T1: human BDCA-2 (CLEC4C) expressed on transfected U937 cells (human, UniProt Q8WTT0 1-213)
T1 construct: also called cell expressed human BDCA-2; Q8WTT0
T1 sequence: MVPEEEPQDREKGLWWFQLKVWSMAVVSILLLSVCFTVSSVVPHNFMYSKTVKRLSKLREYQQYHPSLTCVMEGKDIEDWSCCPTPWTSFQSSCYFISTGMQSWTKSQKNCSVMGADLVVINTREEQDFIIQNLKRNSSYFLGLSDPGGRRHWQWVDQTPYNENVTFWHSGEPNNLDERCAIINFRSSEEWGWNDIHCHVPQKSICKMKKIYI

T2: cynomolgus BDCA-2 expressed on transfected U937 cells (cynomolgus, UniProt Q8WTT0 1-213 (human entry))
T2 construct: also called cell expressed cynomolgus BDCA-2
T2 chain: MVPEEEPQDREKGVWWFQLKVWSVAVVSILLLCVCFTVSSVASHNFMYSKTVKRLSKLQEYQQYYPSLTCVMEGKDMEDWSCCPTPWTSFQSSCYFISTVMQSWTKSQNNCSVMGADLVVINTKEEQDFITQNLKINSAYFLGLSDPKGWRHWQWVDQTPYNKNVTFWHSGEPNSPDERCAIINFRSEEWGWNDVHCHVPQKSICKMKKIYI

T3: BDCA-2 (CLEC4C, CD303) on human plasmacytoid dendritic cells (purified pDC or pDC within PBMC) (human, UniProt Q8WTT0 1-213)
T3 sequence: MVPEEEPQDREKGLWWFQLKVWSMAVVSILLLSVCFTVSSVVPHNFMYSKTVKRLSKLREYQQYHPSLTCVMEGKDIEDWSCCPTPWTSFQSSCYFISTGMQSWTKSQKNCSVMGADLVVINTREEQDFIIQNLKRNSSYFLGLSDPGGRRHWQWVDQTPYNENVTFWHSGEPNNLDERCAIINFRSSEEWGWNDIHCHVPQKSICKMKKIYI


Legend:
[1] = molecular target: T4, human BDCA-2-Fc (hIgG1-Fc-hBDCA-2) (human); assay: ELISA on plate-coated human BDCA2-Fc
T4 construct: also called huBDCA2-Fc
T4 sequence (chain, as listed by the source limits assumed): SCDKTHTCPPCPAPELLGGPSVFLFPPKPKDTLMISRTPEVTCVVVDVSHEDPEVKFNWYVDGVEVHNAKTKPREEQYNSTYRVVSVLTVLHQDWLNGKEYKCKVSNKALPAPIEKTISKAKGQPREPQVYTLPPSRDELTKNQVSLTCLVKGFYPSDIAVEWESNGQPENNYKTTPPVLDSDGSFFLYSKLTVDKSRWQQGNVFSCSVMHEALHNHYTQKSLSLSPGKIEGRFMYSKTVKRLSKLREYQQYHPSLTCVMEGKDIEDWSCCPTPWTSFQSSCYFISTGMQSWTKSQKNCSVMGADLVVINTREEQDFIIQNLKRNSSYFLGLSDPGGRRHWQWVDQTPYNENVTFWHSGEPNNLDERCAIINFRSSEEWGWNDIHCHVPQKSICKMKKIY
Experimental: 100 ul per well of 0.5 μg/ml of human BDCA2-Fc in PBS pH 7.4 was incubated overnight at 4 C. The wells were then washed 3 times with PBST (PBS+0.05% Tween 20) and then blocked with 250 ul 4% Skimmed Milk (Marvel, cat. no. 3023033 Lot no. 7169) in PBS for 120 min at RT. The wells were washed and then incubated with 100 ul per well of humanized mAbs at 3 fold dilutions (from 1 μg/ml to 0.001 μg/ml) in 1% Skimmed Milk PBS buffer at pH 7.4. After 60 min at RT the wells were washed 3 times in PBST and 100 ul of mouse anti-human IgG (anti-CH1-HRP; 1:1000, BD Pharmigen cat. no. 555788) or donkey anti-mouse IgG (anti-mouse IgG-HRP) at 1:5000 dilution (Jackson ImmunoResearch, Cat. no. 715-035-150) in 1% Skimmed Milk PBS was added. Development was with TMB (ThermoFisher, cat. no. 00-4201-56), 100 ul/well and the reaction stopped with 100 μl/well H2SO4 (cat. nr. J/8430/15, lot nr.) and the absorbance read at 450 nm. The EC50 was calculated using Graphpad Prism software. A negative (1% Skimmed Milk/PBS) and positive control (anti-BDCA-2, AC144, Miltenyi Biotec, cat. no. 130-090-690) were utilised in the assay.

[2] = molecular target: T1, human BDCA-2 (CLEC4C) expressed on …; assay: flow cytometry (MFI titration) on cells expressing human BDCA-2
Experimental: (§1) Cells expressing human and cynomolgus BDCA-2 were resuspend at 2×10⁶ cells/mi in FACS buffer (2% FBS/PBS) and 50 μl of the cell suspension was added per well, in a 96-well V bottom plate. The plate was centrifuge and the supernatant discarded. 12 serial, 2-fold dilutions of mAbs, starting at 50 μg/ml (range 50-0.024 μg/ml), in FACS buffer were prepared and 25 μl of the mAb dilutions added to wells, in triplicate. The plate was then incubated for 60 min at room temperature then centrifuged and washed 3× with 150 μl FACS buffer. To each well was then added 25 μl goat-anti-human PE conjugate (or goat-anti-mouse in the case of AC144), diluted 1:200 in FACS buffer. The plates were incubated for 60 min at room temperature protected from light and centrifuged and washed 3× with 150 μl FACS buffer. 25 μl per well of 2% PFA 2% was added and incubated for 20 min at 4° C., protected from light and analysed on the iQue screener.
(§2) Serial dilutions of the 4 chimeric mAbs (50-0.25 ug/ml) were prepared and incubated with cells expressing human and cynomolgus BDCA-2. After staining, the median fluorescence intensity (MFI) of the cells was measured and the data points of the dilution series were fitted on a sigmoidal curve after normalization to determine the EC50 values.

[3] = molecular target: T2, cynomolgus BDCA-2 expressed on …; assay: flow cytometry (MFI titration) on cells expressing cynomolgus BDCA-2
Experimental: as §1, §2

[4] = molecular target: T4, human BDCA-2-Fc (hIgG1-Fc-hBDCA-2); assay: SPR (BIAcore T200), huBDCA2-Fc immobilised on CM5 chip, mAb injected
Experimental: A BIAcore T200 was used with BIAcore run buffer (HBS-EP) at pH7.4. 692RU of huBDCA2-Fc was immobilized to a CM5 chip (CFJB156) utilising 5 μg/ml of huBDCA2-Fc with the BIAcore EDC/NHS kit according to the manufacturer's instructions. Two-fold dilutions of the humanized mAbs were injected starting at 200 nM down to 3.1 nM with a contact time of 60 s at a flow of 30 or 60 ul/min at 25° C. followed by an off-rate wash for 5 minutes with BIAcore buffer. […] The BIAcore T200 software was used to calculate Ka (1/Ms), Kd (1/s) and the KD (nM).

[5] = molecular target: T3, BDCA-2 (CLEC4C, CD303) on human …; assay: cell-based or functional assay
[6] = molecular target: T3, BDCA-2 (CLEC4C, CD303) on human …; assay: cell-based or functional assay; remark: listed apart in the source
[7] = molecular target: T4, human BDCA-2-Fc (hIgG1-Fc-hBDCA-2); assay: SPR (BIAcore), comparison of KD
[8] = molecular target: the molecule itself; assay: High-Mass MALDI mass spectrometry with chemical cross-linking
Experimental: For the characterization of BDCA2(CLEC4C)/3E5 (variant 12) complexes, the measurements were performed using an Autoflex II MALDI ToF ToF mass spectrometer (Bruker) equipped with a CovalX HM4 interaction module. The CovalX interaction module contains a detecting system designed to optimize detection up to 2 MDa with nano-molar sensitivity. […] In order to characterize CLEC4C we submitted the sample to trypsin, chymotrypsin, Asp-N, elastase and thermolysin proteolysis followed by nLC-LTQ-Orbitrap MS/MS analysis. For the characterization, a nLC Ultimate 3000-RSLC system in line with a LTQ-Orbitrap mass spectrometer (Thermo Scientific) was used. Sample preparation was as follows:
In order to determine the epitope of CLEC4C/3E5 complex with high resolution, the protein complexes were incubated with deuterated cross-linkers and subjected to multi-enzymatic cleavage. After enrichment of the crosslinked peptides, the samples were analyzed by high resolution mass spectrometry (nLC-LTQ-Orbitrap MS) and the data generated were analyzed using XQuest and Stavrox software.

EC50 [1] [nM]	EC50 [2] [µg/mL]	EC50 [3] [µg/mL]	Kd [4] [nM]	IC50, ng/ml; inhibition of IFNα from ODN stimulated healthy donor PBMC [5] [ng/mL]	IC90, ng/ml; inhibition of IFNα from ODN stimulated healthy donor PBMC [5] [ng/mL]	IC50, nM; inhibition of IFNα from ODN stimulated healthy donor PBMC [6] [nM]	IC90, nM; inhibition of IFNα from ODN stimulated healthy donor PBMC [6] [nM]	fold higher affinity than parental wild type 3E05 and AC144 [7] [fold]	Binder	binding result [8]
0.3	1.76	2.6	0.35						chimeric mAb 3E05 (parental mouse 3E05 VH/VL on human IgG1) (antibody, V domains shown, also called 3E5; Parental 3E05) VH: EVKLVESGGGLVKPGGSLKLSCAASGFTFSSYTMSWVRQTPEKRLEWVAYISSGGGNTYYPDSVKGRFTISRDNARNTLYLQMSSLRSEDTAMYYCARHDYYDGGLYYAMDYWGQGTSVTVSS VL: DIVLTQSPASLAVSLGQRATISCKASQSVDYDGDSSMNWYQQKPGQPPKLLICAASTLESGIPARFSGSGSGTDFTLNIHPVEEEDAATYYCQQTNEDPPTFGGGTKLEIK	
0.33			< 0.01	14.3	127	0.1	0.85	> 100	3E05_var12 (antibody, human IgG1, V domains shown, also called 3E05 VL3VH4 (var_12); 3E05VL3VH4 (var_12)) VH: EVQLVESGGGLVKPGGSLRLSCAASGFTFSSYTMSWVRQAPGKGLEWVAYISSGGGQTYYPDSVKGRFTISRDNAKNSLYLQMNSLRAEDTAVYYCARHDYYEGGLYYAMDYWGQGTLVTVSS VL: DIVMTQSPDSLAVSLGERATINCKSSQSVDYDGDSSMNWYQQKPGQPPKLLIYAASTLESGVPSRFSGSGSGTDFTLTISSLQAEDVATYYCQQTNEDPPTFGGGTKVEIK	no binding
									CLEC4C (BDCA-2) protein used for cross-linking / mass spectrometry epitope mapping (receptor, also called BDCA2(CLEC4C)) NFMYSKTVKRLSKLREYQQYHPSLTCVMEGKDIEDWSCCPTPWTSFQSSCYFISTGMQSWTKSQKNCSVMGADLVVINTREEQDFIIQNLKRNSSYFLGLSDPGGRRHWQWVDQTPYNENVTFWHSGEPNNLDERCAIINFRSSEEWGWNDIHCHVPQKSICKMKKIYI	no binding

Reference: US20220162322A1 (CAPELLA BIOSCIENCE, published 2022)
